Measured values taken from patent publication US20250026837A1 (CANCURE, published 2025).
Each block holds one binder with its values, some of them ahead of it.

Legend:
[1] = biological target: T1, MICB (antigen in solution in the BLI assay) (UniProt Q29980 24-297, limits assumed); assay: BLI, Octet Red96; antibody captured on biosensor, MICB dilution series in solution; 1:1 model, global fit; Ab-J (chimeric B10G5), FIG. 2A
T1 construct: also called antigen (MICB)
T1 sequence (looked up): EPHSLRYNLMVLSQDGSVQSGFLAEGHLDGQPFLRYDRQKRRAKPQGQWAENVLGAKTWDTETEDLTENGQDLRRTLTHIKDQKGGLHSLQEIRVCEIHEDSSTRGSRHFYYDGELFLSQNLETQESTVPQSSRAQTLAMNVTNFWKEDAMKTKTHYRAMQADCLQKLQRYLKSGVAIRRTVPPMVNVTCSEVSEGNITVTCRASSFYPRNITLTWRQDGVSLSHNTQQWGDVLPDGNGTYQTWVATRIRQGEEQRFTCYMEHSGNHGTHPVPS
Description: (§1) Bio-layer interferometry (BLI) was performed using Octet Red96 (ForteBio) generally as described by Kamat and Rafique, Analytical Biochemistry 536: 16-31 (2017). Antibody samples, Ab-K and Ab-J (chimeric B10G5), were captured on kinetic grade biosensors. The loaded biosensors were then dipped into a dilution series of samples containing antigen (MICB) serially diluted in PBS buffer with 0.1% BSA, 0.02% Tween-20, pH 7.2. […] Kinetic analysis was performed using a 1:1 binding model and global fitting with mass transport limitation using the Scrubber software.

[2] = biological target: T1, MICB (antigen in solution in the BLI …); assay: BLI, Octet Red96; antibody captured on biosensor, MICB dilution series in solution; 1:1 model, global fit; Ab-K (humanized), FIG. 2B
Description: as §1

Kd [1]: 12.1 nM
B1: antibody J (Ab-J; chimeric B10G5, parental HC / parental LC with human IgG1 Fc region) (antibody, V domains shown)
VH: EVQLEESGPGLVKPSQSLSLTCTVTGYSITSDYAWNWIRQFPGNKLEWMGYISYSGSTNYNPSLKSRISITRDTSKNQFFLQLNSVITEDTATYYCARGGTYFDYWGQGTTLTVSS
VL: DIVLTQTTSYLSVSLGGRVTIACKASAHINNWLAWYQQKPGNAPRLLISDATSLETGVPSRFSGSGSGKDYTLSITSLQTEDVATYYCQHYWSTPWTFGGGTKLEIK
notes: also called chimeric antibody B10G5

Kd [2]: 7.2 nM
B2: antibody K (Ab-K; humanized HC2 / humanized LC3, human IgG1) (antibody, V domains shown)
VH: EVQLQESGPGLVKPSQTLSLTCTVSGYSITSDYAWNWIRQPPGKGLEWIGYISYSGSTNYNPSLKSRVTISRDTSKNQFSLKLSSVTAADTAVYYCARGGTYFDYWGQGTLVTVSS
VL: DVVMTQSPSTLSASVGDRVTITCRASAHINNWLAWYQQKPGKAPKLLISDATSLESGVPSRFSGSGSGKEYTLTISSLQPDDFATYYCQHYWSTPWTFGQGTKVEIKR
notes: also called K (HC2/LC3)
